Measured values reported in US20140087995A1 (published 2014).
Numbered stars: 1 amine (or outer) side, 2 acyl side, 3 side chain; on linkers, the order of the positions; unused ones are H or OH. Bridge positions count the residues as written; N and C are the ends. Side chains are listed from the residue outwards. Ends that are not written are not given here. * marks the point of attachment. C20 diacid = O=C(O)CCCCCCCCCCCCCCCCCCC(=O)*; γGlu = O=C(O)[C@H](CCC(=O)[*:2])N[*:1]

T1: human amylin receptor (human, UniProt P30988 25-474; O60896 24-148, limits assumed)
T1 construct: whole, on cells; Calcitonin receptor plus RAMP-3 gives the amylin 3(a) receptor; membranes of Amylin 3(a)/CRE-luc cells were used; also called hAmylin-R; hAmylinR
T1 sequence (looked up) 1: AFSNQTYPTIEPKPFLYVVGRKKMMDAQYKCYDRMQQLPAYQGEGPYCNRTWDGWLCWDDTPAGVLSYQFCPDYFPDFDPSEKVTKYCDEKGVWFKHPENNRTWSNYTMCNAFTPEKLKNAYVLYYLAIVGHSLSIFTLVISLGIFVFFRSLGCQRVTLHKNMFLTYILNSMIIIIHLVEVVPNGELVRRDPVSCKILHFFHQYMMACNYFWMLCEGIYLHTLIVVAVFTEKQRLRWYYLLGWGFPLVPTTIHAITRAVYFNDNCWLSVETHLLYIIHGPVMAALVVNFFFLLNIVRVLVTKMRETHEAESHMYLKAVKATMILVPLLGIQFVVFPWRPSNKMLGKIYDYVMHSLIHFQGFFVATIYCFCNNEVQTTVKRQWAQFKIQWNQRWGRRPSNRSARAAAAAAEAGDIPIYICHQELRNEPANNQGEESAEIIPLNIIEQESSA
T1 sequence (looked up) 2: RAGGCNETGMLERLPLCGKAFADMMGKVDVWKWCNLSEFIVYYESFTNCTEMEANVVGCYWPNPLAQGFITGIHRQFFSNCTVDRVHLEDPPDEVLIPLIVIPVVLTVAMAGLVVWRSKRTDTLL


Biological target: T1, human amylin receptor
Experiment: SPA competition binding, displacement of 125I-rat amylin from membranes with human amylin 3(a) receptor (Assay V)
Summary of the method: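 SPA beads + BHK amylin 3(a)/CRE-luc membranes, 35 ng/μL final; buffer 50 mM Hepes pH 7.4, 1 mM CaCl2, 5 mM MgCl₂, 0.1% OA, 0.02% Tween20. 120 min, 25° C, shaken; scintillation count. IC₅₀ by one-site binding competition fit, taken as receptor affinity.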

Row | IC50 | Binder
1 | 0.076 nM | K([γGlu-γGlu-C20 diacid])CNTATCATQRLASFLRHSSPNFGAIPSSTNVGPETY-NH2 (disulfide 2-7; N-terminus assumed; SMILES CC[C@H](C)[C@H](NC(=O)[C@H](C)NC(=O)CNC(=O)[C@H](Cc1ccccc1)NC(=O)[C@H](CC(N)=O)NC(=O)[C@@H]1CCCN1C(=O)[C@H](CO)NC(=O)[C@H](CO)NC(=O)[C@H](Cc1c[nH]cn1)NC(=O)[C@H](CCCNC(=N)N)NC(=O)[C@H](CC(C)C)NC(=O)[C@H](Cc1ccccc1)NC(=O)[C@H](CO)NC(=O)[C@H](C)NC(=O)[C@H](CC(C)C)NC(=O)[C@H](CCCNC(=N)N)NC(=O)[C@H](CCC(N)=O)NC(=O)[C@@H](NC(=O)[C@H](C)NC(=O)[C@@H]1CSSC[C@H](NC(=O)[C@@H](N)CCCCNC(=O)CC[C@H](NC(=O)CC[C@H](NC(=O)CCCCCCCCCCCCCCCCCCC(=O)O)C(=O)O)C(=O)O)C(=O)N[C@@H](CC(N)=O)C(=O)N[C@@H]([C@@H](C)O)C(=O)N[C@@H](C)C(=O)N[C@@H]([C@@H](C)O)C(=O)N1)[C@@H](C)O)C(=O)N1CCC[C@H]1C(=O)N[C@@H](CO)C(=O)N[C@@H](CO)C(=O)N[C@H](C(=O)N[C@@H](CC(N)=O)C(=O)N[C@H](C(=O)NCC(=O)N1CCC[C@H]1C(=O)N[C@@H](CCC(=O)O)C(=O)N[C@H](C(=O)N[C@@H](Cc1ccc(O)cc1)C(N)=O)[C@@H](C)O)C(C)C)[C@@H](C)O, also called 14S, 17R, 21P, 27P, 34P, 35E)
2 | 0.142 nM | K([γGlu-C20 diacid])CNTATCATQRLAEFLRHSSPNFGAIPSSTNVGSNTP-NH2 (disulfide 2-7; N-terminus assumed; SMILES CC[C@H](C)[C@H](NC(=O)[C@H](C)NC(=O)CNC(=O)[C@H](Cc1ccccc1)NC(=O)[C@H](CC(N)=O)NC(=O)[C@@H]1CCCN1C(=O)[C@H](CO)NC(=O)[C@H](CO)NC(=O)[C@H](Cc1c[nH]cn1)NC(=O)[C@H](CCCNC(=N)N)NC(=O)[C@H](CC(C)C)NC(=O)[C@H](Cc1ccccc1)NC(=O)[C@H](CCC(=O)O)NC(=O)[C@H](C)NC(=O)[C@H](CC(C)C)NC(=O)[C@H](CCCNC(=N)N)NC(=O)[C@H](CCC(N)=O)NC(=O)[C@@H](NC(=O)[C@H](C)NC(=O)[C@@H]1CSSC[C@H](NC(=O)[C@@H](N)CCCCNC(=O)CC[C@H](NC(=O)CCCCCCCCCCCCCCCCCCC(=O)O)C(=O)O)C(=O)N[C@@H](CC(N)=O)C(=O)N[C@@H]([C@@H](C)O)C(=O)N[C@@H](C)C(=O)N[C@@H]([C@@H](C)O)C(=O)N1)[C@@H](C)O)C(=O)N1CCC[C@H]1C(=O)N[C@@H](CO)C(=O)N[C@@H](CO)C(=O)N[C@H](C(=O)N[C@@H](CC(N)=O)C(=O)N[C@H](C(=O)NCC(=O)N[C@@H](CO)C(=O)N[C@@H](CC(N)=O)C(=O)N[C@H](C(=O)N1CCC[C@H]1C(N)=O)[C@@H](C)O)C(C)C)[C@@H](C)O, also called 14E, 17R, 21P, 27P, 37P)
